Source: patent US20240385190A1 (EISAI R AND D MANAGEMENT, published 2024)
Substitutions are numbered along the chain they refer to. “And” between values parts separate entries of the source, which are not always exact repeats. Equal values may be shown once.

B1: KPEP11_04 (antibody, V domains shown)
VH: QEQLKESGGRLVTPGGSLTLTCTVSGIDLSSYAMSWVRQAPEKGLEWIGFINMYGTYYASWAKGRFTISRTSTTVDLKVTSLTTEDTATYFCVRGGRSPDYDIVSGDIWGPGTLVTVSS
VL: YVMMTQTPSSVSEPVGGTVTIKCQASQNIYNSLAWYQQKPGQRPKLLIADASELASGVPQRFSGSGSGTQFTLTISDLECADAATYYCQSSSAGDSYVGGFGGGTEVVVKG
notes: Rabbit IgG/kappa; Used HRP-labeled as detection antibody in the sandwich ELISAs; also called anti-human EphA4 rabbit monoclonal antibody KPEP11_04; HRP-labeled KPEP11_04
B2: KPEP11_08 (antibody)
heavy: QSLEESGGRLVTPGTPLTLTCTVSGFSLSSYHMSWVRQAPGKGLEWIGIIYRSGNTYYANWAKGRFTISKTSTTVDLKITSPTTEDTATYFCARESSTFYGMDLWGPGTLVTVSSGAPKAPSVFPLAPCCGDTPSSTVTLGCLVKGYLPEPVTVTWNSGTLTNGVRTFPSVRQSSGLYSLSSVVSVTSSSQPVTCNVAHPATNTKVDKTVAPSTCSKPTCPPPELLGGPSVFIFPPKPKDTLMISRTPEVTCVVVDVSQDDPEVQFTWYINNEQVRTARPPLREQQFNSTIRVVSTLPITHQDWLRGKEFKCKVHNKALPAPIEKTISKARGQPLEPKVYTMGPPREELSSRSVSLTCMINGFYPSDISVEWEKNGKAEDNYKTTPAVLDSDGSYFLYNKLSVPTSEWQRGDVFTCSVMHEALHNHYTQKSISRSPGK
light: DPVLTQTASSVSAAVGGTVTINCQASQSVYGNNELAWYQQKPGQPPKLLIYTASSLASGVPSRFKGSGSGTEFTLTISDLECADAATYYCLGYKSDDYTFGGGTEVVVKGAPVAPTVLIFPPAADQVATGTVTIVCVANKYFPDVTVTWEVDGTTQTTGIENSKTPQNSADCTYNLSSTLTLTSTQYNSHKEYTCKVTQGTTSVVQSFNRGDC
notes: Rabbit IgG/kappa; Used HRP-labeled as detection antibody in the sandwich ELISAs; also called anti-human EphA4 rabbit monoclonal antibody KPEP11_08; HRP-labeled KPEP11_08
B3: KPEP11_10 (antibody)
heavy: B2 heavy
light: B2 light with D1A, P2I, V3K, L4M, A8P
notes: Rabbit IgG/kappa; Used coated or HRP-labeled in the sandwich ELISAs; also called anti-human EphA4 rabbit monoclonal antibody KPEP11_10; HRP-labeled KPEP11_10

Key:
Rabbit = target: T1, Rabbit; assay: ELISA
T1 construct: also called rabbit EphA4 extracellular domain-SEAP-His protein
Procedure: (§1) For the anti-human EphA4 monoclonal antibodies produced in Example 1, evaluation of binding activity to various EphA4 was performed according to the following steps. Mouse anti-6-His antibodies (R&D) were coated on the wells of a 96-well plate (Thermo […]). After incubating at room temperature for 1 hour, the wells were blocked at 4° C. overnight with 1% Block Ace (KAC). After washing three times with 0.02% Tween 20/PBS, the wells were seeded with mouse EphA4 extracellular domain-SEAP-His protein, rat EphA4 extracellular domain-SEAP-His protein, rabbit EphA4 extracellular domain-SEAP-His protein, monkey EphA4 extracellular domain-SEAP-His protein, human EphA4 extracellular domain-SEAP-His protein, or SEAP-His protein (final concentration 1 nM), and this was incubated at room temperature for 1 hour. After washing three times, anti-human EphA4 rabbit monoclonal antibody (10 pg/mL) was added, and this was incubated at room temperature for about 1 hour. After washing three times, horseradish peroxidase labeled goat anti-rabbit IgG polyclonal antibody (abcam) was added, and this was incubated at room temperature for 1 hour. After washing three times, TMBZ (3,3′,5,5′-tetramethylbenzidine, KPL) solution was added to the wells, and this was incubated for 3 minutes at room temperature. Equal amounts of quenching solution (2 N H₂SO₄, FUJIFILM Wako) were added to the wells, and absorbance at 450 nm and 650 nm were read with a microplate reader (Thermo […]).

Rat = target: T2, Rat; assay: ELISA
T2 construct: also called rat EphA4 extracellular domain-SEAP-His protein
Procedure: as §1

Mouse = target: T3, Mouse; assay: ELISA
T3 construct: also called mouse EphA4 extracellular domain-SEAP-His protein
Procedure: as §1

SEAP = target: T4, SEAP; assay: ELISA
T4 construct: negative control antigen; also called SEAP-His protein
Procedure: as §1

[1] = target: T5, human EphA4 extracellular domain-SEAP-His protein (human); assay: ELISA
T5 sequence (chain, as listed by the source limits assumed): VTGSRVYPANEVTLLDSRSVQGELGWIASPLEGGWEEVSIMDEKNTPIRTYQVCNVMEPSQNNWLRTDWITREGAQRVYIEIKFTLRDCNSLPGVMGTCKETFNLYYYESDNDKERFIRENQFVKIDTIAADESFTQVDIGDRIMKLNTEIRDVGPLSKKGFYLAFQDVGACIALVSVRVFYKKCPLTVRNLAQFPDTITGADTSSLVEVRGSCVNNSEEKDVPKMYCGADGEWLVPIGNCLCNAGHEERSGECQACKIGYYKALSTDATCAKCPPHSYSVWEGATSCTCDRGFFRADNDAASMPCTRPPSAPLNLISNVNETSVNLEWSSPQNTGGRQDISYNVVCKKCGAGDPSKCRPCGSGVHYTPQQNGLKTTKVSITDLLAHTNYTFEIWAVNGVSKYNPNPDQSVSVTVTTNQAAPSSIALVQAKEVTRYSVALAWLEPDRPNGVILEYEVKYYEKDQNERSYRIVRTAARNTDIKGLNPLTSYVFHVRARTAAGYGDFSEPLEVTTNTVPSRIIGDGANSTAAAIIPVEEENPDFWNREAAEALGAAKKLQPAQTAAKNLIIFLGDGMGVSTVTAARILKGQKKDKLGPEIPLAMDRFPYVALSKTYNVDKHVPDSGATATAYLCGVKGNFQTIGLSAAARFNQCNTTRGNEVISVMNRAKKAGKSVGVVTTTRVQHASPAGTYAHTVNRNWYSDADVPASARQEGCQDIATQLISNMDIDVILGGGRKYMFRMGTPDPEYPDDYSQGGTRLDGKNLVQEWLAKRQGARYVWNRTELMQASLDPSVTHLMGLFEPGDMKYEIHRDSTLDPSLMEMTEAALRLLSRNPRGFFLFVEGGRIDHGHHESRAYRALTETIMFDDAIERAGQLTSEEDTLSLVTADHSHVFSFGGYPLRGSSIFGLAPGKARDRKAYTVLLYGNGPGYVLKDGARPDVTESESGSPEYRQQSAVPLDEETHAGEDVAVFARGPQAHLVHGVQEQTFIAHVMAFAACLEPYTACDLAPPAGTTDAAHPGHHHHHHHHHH
Procedure: as §1

[2] = target: T6, monkey EphA4 extracellular domain-SEAP-His protein (monkey); assay: ELISA
T6 construct: the fusion as a whole has none; not shown: SEAP-His part
T6 sequence (chain, as listed by the source): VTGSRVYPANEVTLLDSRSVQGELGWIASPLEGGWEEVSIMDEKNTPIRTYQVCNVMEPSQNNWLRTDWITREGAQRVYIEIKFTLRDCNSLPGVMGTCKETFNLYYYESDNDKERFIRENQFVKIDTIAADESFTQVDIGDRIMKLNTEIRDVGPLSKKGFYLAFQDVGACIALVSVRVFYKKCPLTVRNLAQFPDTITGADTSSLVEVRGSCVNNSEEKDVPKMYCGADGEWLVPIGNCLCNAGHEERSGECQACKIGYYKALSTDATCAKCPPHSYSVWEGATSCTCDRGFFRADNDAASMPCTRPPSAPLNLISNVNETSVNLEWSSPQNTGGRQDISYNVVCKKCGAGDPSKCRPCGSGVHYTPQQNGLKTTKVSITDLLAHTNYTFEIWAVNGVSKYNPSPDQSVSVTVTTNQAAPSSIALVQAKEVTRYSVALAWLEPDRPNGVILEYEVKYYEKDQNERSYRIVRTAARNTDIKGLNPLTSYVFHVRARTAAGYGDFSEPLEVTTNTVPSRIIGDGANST
Procedure: as §1

FN1 = assay: ELISA
Procedure: (§2) For the anti-human EphA4 monoclonal antibodies produced in Example 1, evaluation of binding activity to various EphA4 was performed according to the following steps. Mouse anti-6-His antibodies (R&D) were coated on the wells of a 96-well plate (Thermo […]). After incubating at room temperature for 1 hour, the wells were blocked at room temperature for 1 hour with 1% Block Ace (KAC). After washing three times with 0.02% Tween 20/PBS, the wells were seeded with human EphA4 extracellular domain-MBP-His protein, human EphA4 ligand binding domain-MBP-His protein, human EphA4 fibronectin III-type domain 1-MBP-His protein, human EphA4 fibronectin III-type domain 2-MBP-His protein, or MBP-His protein (final concentration 1 nM), and this was incubated at room temperature for 1 hour. After washing three times, anti-human EphA4 rabbit monoclonal antibody (10 pg/mL) was added, and this was incubated at room temperature for 1 hour. After washing three times, horseradish peroxidase labeled goat anti-rabbit IgG polyclonal antibody (abcam) was added, and this was incubated at room temperature for 1 hour. After washing three times, TMBZ (3,3′,5,5′-tetramethylbenzidine, KPL) solution was added to the wells, and this was incubated for four and a half minutes at room temperature. Equal amounts of quenching solution (2 N H₂SO₄, FUJIFILM Wako) were added to the wells, and absorbance at 450 nm and 650 nm were read with a microplate reader (Thermo […]).

FN2 = assay: ELISA
Procedure: as §2

MBP = assay: ELISA
Procedure: as §2

[3] = target: T7, human EphA4 extracellular domain-MBP-His protein (human); assay: ELISA
T7 construct: also called human EphA4 extracellular domain (ECD); Human EphA4 extracellular domain-MBP-His 10
Procedure: as §2

[4] = target: human EphA4 ligand binding domain-MBP-His protein (human, UniProt P54764 20-209; P0AEX9 29-392 = MBP); assay: ELISA
Procedure: as §2

[5] = target: T5, human EphA4 extracellular …; assay: ELISA; remark: listed apart in the source
[6] = target: T6, monkey EphA4 extracellular …; assay: ELISA; remark: listed apart in the source
[7] = target: T7, human EphA4 extracellular …; assay: SPR Biacore T200, EphA4 ECD-MBP-His captured by anti-His antibody, antibody as analyte, 1:1 model
Procedure: (§3) The binding affinity of KPEP11_04, KPEP11_08, KPEP11_10, and KPEP11_18 against human EphA4 was determined by the surface plasmon resonance method (SPR method) employing Biacore T200 (Cytiva). First, an anti-His antibody (Cytiva, 28-9950-56) was diluted to 10 μg/mL with the immobilizing buffer (10 mM sodium acetate, pH 4.5), and immobilized onto a sensor chip CM5 according to the protocol attached to Biacore T200. Immobilization was performed by the amine coupling method employing N-hydroxysuccinimide (NHS) and N-ethyl-N′-(3-dimethylaminopropyl) carbodiimide hydrochloride salt (EDC), and ethanolamine was employed for blocking (sensor chips or immobilizing reagents were all from Cytiva). Human EphA4 extracellular domain-MBP-His 10 was diluted with a running buffer HBS-EP+ (Cytiva), and pumped onto a flow cell for 120 seconds to allow capturing (captured amount of about 3 RU). […] At the end of each observation, 10 mM glycine hydrochloric acid pH 1.5 (60 seconds) and 3 M MgCl₂ (30 seconds) were added to regenerate the sensor chips. Fitting analysis by the 1:1 binding model employing the BIA evaluation software attached to the system was performed against the binding reaction curves obtained to calculate the binding affinity against human EphA4 (KD=kd/ka). The experiment described above was carried out three times, and the mean was calculated for each parameter.

[8] = target: T7, human EphA4 extracellular …; assay: SPR Biacore T200, EphA4 ECD-MBP-His captured by anti-His antibody, antibody as analyte, 1:1 model, mean of three
Procedure: as §3

[9] = target: T7, human EphA4 extracellular …; assay: SPR Biacore T200, EphA4 ECD-MBP-His captured by anti-His antibody, antibody as analyte, 1:1 model, mean of three (exponent printed as -90, read as -09); mean of three experiments
Procedure: as §3

| Binder | absorbance (Rabbit) | absorbance (Rat) | absorbance (Mouse) | absorbance (SEAP) | absorbance [1] | absorbance [2] | absorbance (FN1) | absorbance (FN2) | absorbance (MBP) | absorbance [3] | absorbance [4] | EC50 (read off the curve) [5] [nM] | EC50 (read off the curve) [6] [nM] | Kd [7] | koff [7] | kon [7] | koff [8] [s⁻¹] | kon [8] [M⁻¹ s⁻¹] | Kd [9] [nM] | Kd [8] [nM] |
| --- | --- | --- | --- | --- | --- | --- | --- | --- | --- | --- | --- | --- | --- | --- | --- | --- | --- | --- | --- | --- |
| B1 | 0.039 | 0.044 | 0.044 | 0.05 | 1.26 | 1.21 | 0.225 | 0.227 | 0.267 | 1.41 | 1.33 | ~0.01 | ~0.01 | 1.72 nM and 2.12 nM and 1.87 nM | 0.004 s⁻¹ and 0.00378 s⁻¹ and 0.00389 s⁻¹ | 2.33e+06 M⁻¹ s⁻¹ and 1.78e+06 M⁻¹ s⁻¹ and 2.08e+06 M⁻¹ s⁻¹ | 0.00389 | 2.06e+06 | 1.9 |  |
| B2 | 0.057 | 0.065 | 0.071 | 0.072 | 1.15 |  | 0.283 | 0.265 | 0.3 | 1.31 | 0.292 | ~0.02 | ~0.02 | 1.51 nM and 1.67 nM and 1.36 nM | 0.00214 s⁻¹ | 1.42e+06 M⁻¹ s⁻¹ and 1.24e+06 M⁻¹ s⁻¹ and 1.58e+06 M⁻¹ s⁻¹ | 0.00217 | 1.44e+06 |  | 1.51 |
| B3 | 0.091 | 0.087 |  | 0.087 | 1.17 | 1.11 | 0.329 | 0.325 | 0.334 | 1.35 | 0.34 | ~0.02 | ~0.02 | 1.36 nM and 1.23 nM | 0.00196 s⁻¹ and 0.00198 s⁻¹ | 1.44e+06 M⁻¹ s⁻¹ and 1.58e+06 M⁻¹ s⁻¹ | 0.00196 | 1.52e+06 |  | 1.3 |
